The target in this assay is FRET-GATE-16 (human) (UniProt P60520).

Catalytic efficiency (kcat/KM) of cleavage, FRET-based assay, 37°C, Buffer B data for 1 substance are collected here from paper PMC3337841.

FRET-GATE-16 (human), sequence (P60520 whole entry): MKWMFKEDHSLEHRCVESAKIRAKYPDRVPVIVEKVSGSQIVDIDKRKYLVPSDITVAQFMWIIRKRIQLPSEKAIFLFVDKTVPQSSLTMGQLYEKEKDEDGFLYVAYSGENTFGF

The substance “Atg4A (from UniProt Q8WYN0 1-398) (enzyme)” displayed a catalytic efficiency (kcat/KM) of cleavage, FRET-based assay, 37°C, Buffer B of 1310 mol^−1S^−1.
